From patent US20150362492A1 (DYAX, published 2015)

Biological target: T1, purified human plasma kallikrein (active form), biotinylated (human, UniProt P03952 20-390; P03952 391-638, biotinylated with Sulfo-NHS-LC-Biotin (sites not given))
T1 construct: The protein was captured on avidin-coated plates through biotin; also called pKal; PKal
Assay: complex ELISA: biotinylated kallikrein captured on avidin plate, incubated with plasma, bound C1-INH detected with polyclonal anti-C1-INH and alkaline phosphatase secondary antibody
Experimental: Immulon 2HB plates were coated with 5 μg/ml avidin in coating buffer (100 μl) overnight at 4° C. Plates were washed three times using PBS-Tween (200 μl/each). Subsequently, 200 μl 1% BSA in PBS was added to block the unused sites. The plates were incubated at 37° C. for 1 hr. Plates were washed three times using PBS-Tween (200 μl/each). Added to the plates were: 25 μl standards or samples, 25 μl biotinylated […] and/or biotinylated kallikrein (1 μg/ml), and 50 μl binding buffer. Plates were mixed and incubated at 37° C. for 1 hour. Plates were washed three times using PBS-Tween (200 μl/each). A polyclonal antibody to C1-INH was added and incubated at room temperature for 1 hour. Plates were washed three times using PBS-Tween (200 μl/each). Alkaline phosphatase conjugated secondary antibody was added and incubated at room temperature for 1 hour. […] The OD at 450 nm was read and calculations were performed using the standard curve.
One consideration in development of the assay was that it is beneficial to employ an assay that quantitates functional C1-INH based on an enzyme that is requisite for bradykinin formation. […] Nevertheless, complex ELISA assays detecting functional interaction between C1-INH and either Factor XIIa or kallikrein worked well since only that fraction of kallikrein (˜60%) that is inhibited by C1-INH is detected.

T1 sequence (P03952 20-390, chain 1 of 2): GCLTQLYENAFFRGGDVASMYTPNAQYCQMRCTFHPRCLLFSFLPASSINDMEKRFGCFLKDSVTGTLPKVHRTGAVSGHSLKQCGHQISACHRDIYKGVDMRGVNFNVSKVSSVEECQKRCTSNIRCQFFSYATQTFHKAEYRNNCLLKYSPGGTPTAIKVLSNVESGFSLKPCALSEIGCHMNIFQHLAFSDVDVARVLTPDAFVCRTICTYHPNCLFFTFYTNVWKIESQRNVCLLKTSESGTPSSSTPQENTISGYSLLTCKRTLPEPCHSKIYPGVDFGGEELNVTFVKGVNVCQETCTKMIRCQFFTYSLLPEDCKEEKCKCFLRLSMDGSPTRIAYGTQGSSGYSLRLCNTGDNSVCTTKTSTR
T1 sequence (P03952 391-638, chain 2 of 2): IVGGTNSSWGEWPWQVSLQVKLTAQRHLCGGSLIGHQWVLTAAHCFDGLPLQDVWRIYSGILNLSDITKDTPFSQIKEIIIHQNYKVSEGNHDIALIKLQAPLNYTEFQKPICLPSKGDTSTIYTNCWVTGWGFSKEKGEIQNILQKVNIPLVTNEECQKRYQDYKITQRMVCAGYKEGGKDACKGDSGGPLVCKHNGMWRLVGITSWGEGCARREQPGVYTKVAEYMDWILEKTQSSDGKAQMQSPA

B1: plasma protease C1 inhibitor (C1-INH) in plasma of healthy (normal) controls (other)
chain: NPNATSSSSQDPESLQDRGEGKVATTVISKMLFVEPILEVSSLPTTNSTTNSATKITANTTDEPTTQPTTEPTTQPTIQPTQPTTQLPTDSPTQPTTGSFCPGPVTLCSDLESHSTEAVLGDALVDFSLKLYHAFSAMKKVETNMAFSPFSIASLLTQVLLGAGENTKTNLESILSYPKDFTCVHQALKGFTTKGVTSVSQIFHSPDLAIRDTFVNASRTLYSSSPRVLSNNSDANLELINTWVAKNTNNKISRLLDSLPSDTRLVLLNAIYLSAKWKTTFDPKKTRMEPFHFKNSVIKVPMMNSKKYPVAHFIDQTLKAKVGQLQLSHNLSLVILVPQNLKHRLEDMEQALSPSVFKAIMEKLEMSKFQPTLLTLPRIKVTTSQDMLSIMEKLEFFDFSYDLNLCGLTEDPDLQVSAMQHQTVLELTETGVEAAAASAISVARTLLVFEVQQPFLFVLWDQQHKFPVFMGRVYDPRA
notes: Native C1-INH as present in citrated plasma of healthy human controls (purified C1-INH in buffer was used for the standard curve); also called functional C1-INH
- binding result: binds
